For data set [1], the system named is biotinyl-Val-oxazolone. The data set is described as follows: self-aminoacylation, catalytic enhancement (BVO) (fold over background); higher = more active; k-Seq, kA / k0A0; sequences stand for … in GGGAAUGGAUCCACAUCUACGAAUUC…UUCACUGCAGACUUGACGAAGCUG
A digest of the protocol:
(§1)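 Mutagenized RNA pools with a 21-nt variable region (0.43 μM) were reacted with each biotinyl-aminoacyl-oxazolone at 2–1250 μM for 90 minutes at room temperature, in 50 μL HEPES/NaCl/KCl/MgCl2/CaCl2 buffer containing 5% acetonitrile at pH 6.9–7.0. RNA captured on streptavidin was quantified by triplicate qPCR and by Illumina sequencing. The fraction reacted for each sequence was fit to a pseudo-first-order model with bootstrapping, and catalytic enhancement is the median kA divided by the uncatalyzed rate, taken as the low-activity peak of a bimodal Gaussian fit.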

Data set [2] deals with biotinyl-Leu-oxazolone. The data set is described as follows: self-aminoacylation, catalytic enhancement (BLO) (fold over background); higher = more active; k-Seq, kA / k0A0; sequences stand for … in GGGAAUGGAUCCACAUCUACGAAUUC…UUCACUGCAGACUUGACGAAGCUG
The method, boiled down:
as §1

The subject of data set [3] is biotinyl-Ile-oxazolone. Put plainly: self-aminoacylation, catalytic enhancement (BIO) (fold over background); higher = more active; k-Seq, kA / k0A0; sequences stand for … in GGGAAUGGAUCCACAUCUACGAAUUC…UUCACUGCAGACUUGACGAAGCUG
A digest of the protocol:
as §1

Data set [4] has as its system biotinyl-Trp-oxazolone. The data set is described as follows: self-aminoacylation, catalytic enhancement (BWO) (fold over background); higher = more active; k-Seq, kA / k0A0; sequences stand for … in GGGAAUGGAUCCACAUCUACGAAUUC…UUCACUGCAGACUUGACGAAGCUG
The method, boiled down:
as §1

The test system of data set [5] is biotinyl-Phe-oxazolone. Put plainly: self-aminoacylation, catalytic enhancement (BFO) (fold over background); higher = more active; k-Seq, kA / k0A0; sequences stand for … in GGGAAUGGAUCCACAUCUACGAAUUC…UUCACUGCAGACUUGACGAAGCUG
The method, boiled down:
as §1

Data set [6] concerns biotinyl-Met-oxazolone. Put plainly: self-aminoacylation, catalytic enhancement (BMO) (fold over background); higher = more active; k-Seq, kA / k0A0; sequences stand for … in GGGAAUGGAUCCACAUCUACGAAUUC…UUCACUGCAGACUUGACGAAGCUG
The method, boiled down: as §1

This sample holds only a part of the variants without activity.

Regarding “AUUCACCGAGGUCAUCGGGUA [Fam2.2 aminoacylation ribozyme variant]”, the self-aminoacylation in data set [1] worked out at 3.97; in data set [2] it was 3.22; in data set [3] it was 3.33; in data set [4], 4; in data set [5], 25; in data set [6], 2.93.
For the sequence “AUUCACCGAGGUCAUCGGGUG [Fam2.2 aminoacylation ribozyme variant]”, the self-aminoacylation in data set [1] was determined as 6.85; in data set [2], 14.2; in data set [3], 6.19; in data set [4] it was 9.63; in data set [5], 87; in data set [6], 11.3.
Consider “AUUCACCGAGGUCAUCGGGUU [Fam2.2 aminoacylation ribozyme variant]”, for which the self-aminoacylation stood at 2.84 in data set [1]; 3.15 in data set [2]; 2.26 in data set [3]; 2.7 in data set [4]; 9.59 in data set [5]; 2.61 in data set [6].
Turning to “AUUCACCGAGUUCAUCGGGUG [Fam2.2 aminoacylation ribozyme variant]”, the self-aminoacylation in data set [1] came to 3.14; in data set [2], 5.07; in data set [3], 3.56; in data set [4], 4.3; in data set [5] it was 37.1; in data set [6], 4.92.
Turning to “AUUCACCUAAGUCAUCCGGUG [Fam2.2 aminoacylation ribozyme variant]”, the self-aminoacylation in data set [1] came out at 5.61; in data set [2], 12.2; in data set [3], 5.54; in data set [4] it was 10.3; in data set [5], 63.4; in data set [6], 9.71.
In the case of “AUUCACCUAAGUCAUCGAGUG [Fam2.2 aminoacylation ribozyme variant]”, the self-aminoacylation in data set [1] is 3.78; in data set [2], 7.69; in data set [3], 3.92; in data set [4] it was 5.16; in data set [5], 22.9; in data set [6], 5.75.
Turning to “AUUCACCUAAGUCAUCGGGGG [Fam2.2 aminoacylation ribozyme variant]”, the self-aminoacylation in data set [1] is 1.76; in data set [2], 2.5; in data set [3], 1.92; in data set [4], 2.27; in data set [5], 10.9; in data set [6] it was 2.48.
For “AUUCACCUAAGUCAUCGGGUG [Fam2.2 aminoacylation ribozyme variant]”, the self-aminoacylation in data set [1] stood at 5.58; in data set [2], 12.8; in data set [3], 5.75; in data set [4] it was 8.93; in data set [5], 74.2; in data set [6] it was 9.66.
Consider “AUUCACCUAAGUCAUCUGGUG [Fam2.2 aminoacylation ribozyme variant]”, for which the self-aminoacylation in data set [1] is 1.86; in data set [2] it was 3.72; in data set [3], 2; in data set [4], 2.98; in data set [5], 16.6; in data set [6], 2.52.
In the case of “AUUCACCUAAGUCAUGGGGUG [Fam2.2 aminoacylation ribozyme variant]”, the self-aminoacylation in data set [1] is 3.47; in data set [2] it was 7.26; in data set [3], 3.71; in data set [4] it was 5.16; in data set [5] it was 33.4; in data set [6] it was 5.16.
Turning to “AUUCACCUAAGUCCUCGGGUG [Fam2.2 aminoacylation ribozyme variant]”, the self-aminoacylation in data set [1] came to 4.11; in data set [2], 10.1; in data set [3], 4.5; in data set [4], 6.98; in data set [5], 45.8; in data set [6], 7.52.
For “AUUCACCUACAUCAUCGGGUG [Fam2.2 aminoacylation ribozyme variant]”, the self-aminoacylation in data set [1] stood at 2.06; in data set [2], 3.91; in data set [3] it was 2.19; in data set [4] it was 3.07; in data set [5] it was 22.1; in data set [6] it was 3.63.
As for “AUUCACCUACGUCACCGGGUG [Fam2.2 aminoacylation ribozyme variant]”, the self-aminoacylation in data set [1] turned out to be 2.84; in data set [2], 5.96; in data set [3], 2.72; in data set [4], 3.84; in data set [5], 36.4; in data set [6], 4.43.
Turning to “AUUCACCUACGUCAUCGGGAG [Fam2.2 aminoacylation ribozyme variant]”, the self-aminoacylation stood at 0.861 in data set [1]; 1.07 in data set [2]; 0.803 in data set [3]; 0.502 in data set [4]; 0.516 in data set [5]; 1.23 in data set [6].
As to “AUUCACCUACGUCAUCGGUUG [Fam2.2 aminoacylation ribozyme variant]”, the self-aminoacylation in data set [1] amounted to 1.05; in data set [2], 0.647; in data set [3], 0.789; in data set [4] it was 0.436; in data set [5], 0.512; in data set [6], 0.738.
Take “AUUCACCUAGAACAUCGGGUG [Fam2.2 aminoacylation ribozyme variant]”: the self-aminoacylation amounted to 2.47 in data set [1]; 2.88 in data set [2]; 2.39 in data set [3]; 3.56 in data set [4]; 16.8 in data set [5]; 2.73 in data set [6].
“AUUCACCUAGACCAUCGGGUG [Fam2.2 aminoacylation ribozyme variant]”: the self-aminoacylation in data set [1] stood at 3.62; in data set [2], 5.27; in data set [3], 2.48; in data set [4] it was 3.81; in data set [5], 22.4; in data set [6] it was 4.26.
Turning to “AUUCACCUAGAUCACCGGGUG [Fam2.2 aminoacylation ribozyme variant]”, the self-aminoacylation in data set [1] was determined as 2.55; in data set [2] it was 3.69; in data set [3] it was 2.42; in data set [4], 2.86; in data set [5], 11.5; in data set [6], 2.76.
As to “AUUCACCUAGAUCAUCGGGGG [Fam2.2 aminoacylation ribozyme variant]”, the self-aminoacylation is 1.91 in data set [1]; 2.08 in data set [2]; 1.79 in data set [3]; 2.13 in data set [4]; 8.71 in data set [5]; 2.29 in data set [6].
Turning to “AUUCACCUAGCUAAUCGGGUG [Fam2.2 aminoacylation ribozyme variant]”, the self-aminoacylation in data set [1] was 1.62; in data set [2] it was 2.05; in data set [3] it was 1.6; in data set [4] it was 1.85; in data set [5], 4.49; in data set [6], 1.93.
In the case of “AUUCACCUAGCUCAUAGGGUG [Fam2.2 aminoacylation ribozyme variant]”, the self-aminoacylation turned out to be 1.13 in data set [1]; 1.37 in data set [2]; 1.08 in data set [3]; 0.658 in data set [4]; 1.04 in data set [5]; 1.24 in data set [6].
For the sequence “AUUCACCUAGCUCAUCGGAUG [Fam2.2 aminoacylation ribozyme variant]”, the self-aminoacylation came to 0.82 in data set [1]; 0.772 in data set [2]; 0.779 in data set [3]; 0.452 in data set [4]; 0.472 in data set [5]; 0.609 in data set [6].
Take “AUUCACCUAGGACAGCGGGUG [Fam2.2 aminoacylation ribozyme variant]”: the self-aminoacylation was found to be 2.21 in data set [1]; 2.58 in data set [2]; 2.23 in data set [3]; 2 in data set [4]; 15.1 in data set [5]; 2.49 in data set [6].
Consider “AUUCACCUAGGACAUCGGAUG [Fam2.2 aminoacylation ribozyme variant]”, for which the self-aminoacylation is 1.29 in data set [1]; 0.999 in data set [2]; 0.988 in data set [3]; 0.529 in data set [4]; 0.553 in data set [5]; 1.06 in data set [6].
As to “AUUCACCUAGGACAUCGGGCG [Fam2.2 aminoacylation ribozyme variant]”, the self-aminoacylation came out at 2.38 in data set [1]; 2.79 in data set [2]; 2.31 in data set [3]; 2.27 in data set [4]; 15.1 in data set [5]; 2.2 in data set [6].
